Drawing on the supplement of paper PMC10567573, this text covers protein stability index for 94 variants.

The labels stand for the following.
B1: C9orf25 (parent)
chain: LARKGSLKNGSMGSPVNQQPKKNN
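Note: lentivirally expressed fusions sorted by FACS into six bins by GFP to DsRed ratio, PSI derived from sequencing read proportions per bin multiplied by bin number.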

The data set covers variants of B1. Kind of data set: protein stability index of a GFP-peptide fusion (GPS, HEK-293T) (PSI 1-6); higher = more stable. Particulars: c terminus: a fixed tail appended.
LARKGSLKNGSMGSGVNQQPKKNN [P15G]: the protein stability index stood at 5.

Regarding LARKGSLKNGSMGSIVNQQPKKNN [P15I], the protein stability index was found to be 4.66. As to LARKGSLKNGSMGSLVNQQPKKNN [P15L], the protein stability index is 4.59.

As to LARKGSLKNGSMGSCVNQQPKKNN [P15C], the protein stability index stood at 4.48. For the variant LARKGSLKNGSMGSDVNQQPKKNN [P15D], the protein stability index is 5.45. In the case of LARKGSLKNGSMGSNVNQQPKKNN [P15N] it was 4.42; in that of LARKGSLKNGSMGSRVNQQPKKNN [P15R], 3.8; in that of LARKGSLKNGSMGSSVNQQPKKNN [P15S], 4.26.

As for LARKGSLKNGSMGSFVNQQPKKNN [P15F], the protein stability index stood at 4.2. In the case of LARKGSLKNGSMGSWVNQQPKKNN [P15W], the protein stability index was found to be 4.27. Turning to LARKGSLKNGSMGSVVNQQPKKNN [P15V], the protein stability index turned out to be 4.62. Next, LARKGSLKNGSMGSMVNQQPKKNN [P15M]: 4.66; LARKGSLKNGSMGSTVNQQPKKNN [P15T]: 4.95; LARKGSLKNGSMGSAVNQQPKKNN [P15A]: 4.42. Consider LARKGSLKNGSMGSHVNQQPKKNN [P15H], for which the protein stability index is 4.24.

For LARKGSLKNGSMGSKVNQQPKKNN [P15K], the protein stability index stood at 4.34. Regarding LARKGSLKNGSMGSEVNQQPKKNN [P15E], the protein stability index turned out to be 4.53. Turning to LARKGSLKNGSMGSQVNQQPKKNN [P15Q], the protein stability index is 5.26.

Consider LARKGSLKNGFMGSPVNQQPKKNN [S11F], for which the protein stability index stood at 4.15.

Turning to LARKGSLKNGQMGSPVNQQPKKNN [S11Q], the protein stability index was 4.29.

For LARKGSLKNGDMGSPVNQQPKKNN [S11D], the protein stability index was found to be 4.8. Next, LARKGSLKNGRMGSPVNQQPKKNN [S11R]: 4.61; LARKGSLKNGCMGSPVNQQPKKNN [S11C]: 4.5. Turning to LARKGSLKNGNMGSPVNQQPKKNN [S11N], the protein stability index was 4.88. As to LARKGSLKNGTMGSPVNQQPKKNN [S11T], the protein stability index stood at 4.81. For the variant LARKGSLKNGVMGSPVNQQPKKNN [S11V], the protein stability index worked out at 4.71.

Turning to LARKGSLKNGYMGSPVNQQPKKNN [S11Y], the protein stability index worked out at 4.35. As for LARKGSLKNGAMGSPVNQQPKKNN [S11A], the protein stability index was determined as 4.44. LARKGSLKNGKMGSPVNQQPKKNN [S11K]: the protein stability index is 4.7.

With LARKGSLKNGEMGSPVNQQPKKNN [S11E], the protein stability index was determined as 4.96.

As for LARKGSLKNGMMGSPVNQQPKKNN [S11M], the protein stability index was determined as 4.22. LARKGSLKNGHMGSPVNQQPKKNN [S11H]: the protein stability index came out at 4.15. Next, LARKGSLKNGPMGSPVNQQPKKNN [S11P]: 4.67; LARKGSLKNGLMGSPVNQQPKKNN [S11L]: 4.19.

Regarding LARKGSLKNGGMGSPVNQQPKKNN [S11G], the protein stability index was 5.27. Take LARKGSLKNGIMGSPVNQQPKKNN [S11I]: the protein stability index turned out to be 4.41. With LARKGSLKNGWMGSPVNQQPKKNN [S11W], the protein stability index was determined as 4.45. As for LARKGSLKNISMGSPVNQQPKKNN [G10I], the protein stability index was found to be 4.76. For the variant LARKGSLKNFSMGSPVNQQPKKNN [G10F], the protein stability index came out at 4.25. As for LARKGSLKNKSMGSPVNQQPKKNN [G10K], the protein stability index is 4.35. Regarding LARKGSLKNTSMGSPVNQQPKKNN [G10T], the protein stability index came out at 4.81. On to LARKGSLKNPSMGSPVNQQPKKNN [G10P], for which the protein stability index was 4.86. LARKGSLKNVSMGSPVNQQPKKNN [G10V]: the protein stability index was 4. Turning to LARKGSLKNDSMGSPVNQQPKKNN [G10D], the protein stability index turned out to be 4.61.

Consider LARKGSLKNASMGSPVNQQPKKNN [G10A], for which the protein stability index worked out at 4.83. As to LARKGSLKNWSMGSPVNQQPKKNN [G10W], the protein stability index came to 3.89. In the case of LARKGSLKNHSMGSPVNQQPKKNN [G10H], the protein stability index came to 4.67. As to LARKGSLKNNSMGSPVNQQPKKNN [G10N], the protein stability index worked out at 4.99. For LARKGSLKNCSMGSPVNQQPKKNN [G10C], the protein stability index is 4.33. Next, LARKGSLKNQSMGSPVNQQPKKNN [G10Q]: 4.34. As for LARKGSLKNLSMGSPVNQQPKKNN [G10L], the protein stability index was found to be 4.65. Turning to LARKGSLKNRSMGSPVNQQPKKNN [G10R], the protein stability index was 4.12. On to LARKGSLKNSSMGSPVNQQPKKNN [G10S], for which the protein stability index is 4.14. Turning to LARKGSLKNMSMGSPVNQQPKKNN [G10M], the protein stability index was 4.85.

As for LARKGSLKNESMGSPVNQQPKKNN [G10E], the protein stability index was 5.04. With LARKGSLKNYSMGSPVNQQPKKNN [G10Y], the protein stability index came to 4.35. In the case of LARKGSLKNGSMGVPVNQQPKKNN [S14V] it was 4.77; in that of LARKGSLKNGSMGDPVNQQPKKNN [S14D], 4.96; in that of LARKGSLKNGSMGAPVNQQPKKNN [S14A], 4.73. Take LARKGSLKNGSMGLPVNQQPKKNN [S14L]: the protein stability index came to 4.5. For LARKGSLKNGSMGMPVNQQPKKNN [S14M], the protein stability index stood at 4.97. In the case of LARKGSLKNGSMGYPVNQQPKKNN [S14Y] it was 4.25. LARKGSLKNGSMGIPVNQQPKKNN [S14I]: the protein stability index was determined as 4.62. Turning to LARKGSLKNGSMGWPVNQQPKKNN [S14W], the protein stability index is 4.13. Consider LARKGSLKNGSMGEPVNQQPKKNN [S14E], for which the protein stability index amounted to 4.75.

As for LARKGSLKNGSMGFPVNQQPKKNN [S14F], the protein stability index is 4.3. Turning to LARKGSLKNGSMGHPVNQQPKKNN [S14H], the protein stability index is 4.96. LARKGSLKNGSMGCPVNQQPKKNN [S14C]: the protein stability index was 4.06. Turning to LARKGSLKNGSMGPPVNQQPKKNN [S14P], the protein stability index was determined as 5.02. With LARKGSLKNGSMGNPVNQQPKKNN [S14N], the protein stability index turned out to be 4.81.

LARKGSLKNGSMGQPVNQQPKKNN [S14Q]: the protein stability index was 4.74. Consider LARKGSLKNGSMGGPVNQQPKKNN [S14G], for which the protein stability index was found to be 4.8.

As to LARKGSLKNGSMGTPVNQQPKKNN [S14T], the protein stability index came to 4.42.

Turning to LARKGSLKNGSMGRPVNQQPKKNN [S14R], the protein stability index is 4.23. For LARKGSLKNGSMGKPVNQQPKKNN [S14K], the protein stability index came to 4.83. For LARKGSLKCGSMGSPVNQQPKKNN [N9C], the protein stability index worked out at 4.46.

Turning to LARKGSLKEGSMGSPVNQQPKKNN [N9E], the protein stability index amounted to 5.29. In the case of LARKGSLKPGSMGSPVNQQPKKNN [N9P] it was 4.36; in that of LARKGSLKVGSMGSPVNQQPKKNN [N9V], 4.42; in that of LARKGSLKWGSMGSPVNQQPKKNN [N9W], 3.21.

Turning to LARKGSLKGGSMGSPVNQQPKKNN [N9G], the protein stability index was found to be 4.74. Next, LARKGSLKMGSMGSPVNQQPKKNN [N9M]: 4.18; LARKGSLKFGSMGSPVNQQPKKNN [N9F]: 4.21; LARKGSLKQGSMGSPVNQQPKKNN [N9Q]: 4.92. Next, LARKGSLKYGSMGSPVNQQPKKNN [N9Y]: 4.64; LARKGSLKHGSMGSPVNQQPKKNN [N9H]: 4.63; LARKGSLKAGSMGSPVNQQPKKNN [N9A]: 4.6.

On to LARKGSLKKGSMGSPVNQQPKKNN [N9K], for which the protein stability index was determined as 4.17. Turning to LARKGSLKIGSMGSPVNQQPKKNN [N9I], the protein stability index was determined as 4.64. Turning to LARKGSLKRGSMGSPVNQQPKKNN [N9R], the protein stability index was determined as 4.43. In the case of LARKGSLKSGSMGSPVNQQPKKNN [N9S], the protein stability index came to 4.94. In the case of LARKGSLKDGSMGSPVNQQPKKNN [N9D] it was 5.27; in that of LARKGSLKLGSMGSPVNQQPKKNN [N9L], 3.67. In the case of LARKGSLKTGSMGSPVNQQPKKNN [N9T], the protein stability index is 4.78.
